# Results as given in patent US20090232837A1.
# Biological target: RTQKEASI peptide (mammalian)
# Assay: ELISA, peptide adsorbed to wells (10 mg/ml)
substance,measurement,value
Negative control (ELISA of Table 3),OD,0.141 OD
